Source: US20250073347A1 (FORTVITA BIOLOGICS SINGAPORE PTE, published 2025)

Target: T1, human Claudin18.2 on cells (human, UniProt P56856-2 1-261)
T1 construct: whole, on cells; also called CLDN18.2; hCLDN18.2
Assay: flow cytometry on DANG-hCLDN18.2 cells, relative MFI (fold)
Description: The cells were centrifuged at 500 g for 5 min, and the cell medium was removed. […] The suspension was left to stand on ice for 30 min. The suspension was centrifuged at 500 g for 5 min, the supernatant was removed, and the cells were washed once with PBS. The goat anti-human Fc PE-labeled secondary antibody (SouthemBiotech, J2815-5H87B) was added at 100 µL/well. The resulting mixture was incubated on ice in the dark for 30 min. The mixture was centrifuged at 500 g for 5 min, the supernatant was removed, and the cells were washed once with PBS. The cells were resuspended in 50 μL of 1×PBS, and the suspension was loaded for FACS assay.

- binding result: binds
B1: IEX019-02 (HB37A6-SYNtecan E conjugate) (antibody, human IgG1, kappa, V domains shown)
VH: EVQLLDSGGGLVQPGGSLRLSCAASGFTFSSYVMSWVRQAPGKGLNWVSTISHSGGSTYYADSVKGRFTISRDNSKNTLYLQMNSLRAEDTAVYYCAIDAPYYDILTGYRYWGQGTLVTVSS
VL: not shown
modifications: GlcNAc(Fuc)-6-N3-GalNAc at Asn297 conjugated to linker-payload compound 1 (cleavable linker, 2 exatecan); average DAR 3.52
notes: also called SYN-HB37A6-Ex
